# B1: TPD52L1 (parent)
# chain: ISKKFGDMSYSIRHSISMPAMRNS
# Variants of: B1
# Experiment: protein stability index of a GFP-peptide fusion (GPS, HEK-293T) (PSI 1-6); higher = more stable
# Conditions: c terminus: a fixed tail appended
# 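Note: lentivirally expressed fusions sorted by FACS into six bins by GFP to DsRed ratio, PSI derived from sequencing read proportions per bin multiplied by bin number.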
row,Variant,protein stability index
1,ISKKFGDMSYSIRHSISMIAMRNS,2.6
2,ISKKFGDMSYSIRHSISMTAMRNS,2.17
3,ISKKFGDMSYSIRHSISMCAMRNS,1.76
4,ISKKFGDMSYSIRHSISMSAMRNS,1.97
5,ISKKFGDMSYSIRHSISMRAMRNS,1.9
6,ISKKFGDMSYSIRHSISMNAMRNS,2.04
7,ISKKFGDMSYSIRHSISMEAMRNS,2.47
8,ISKKFGDMSYSIRHSISMHAMRNS,2.01
9,ISKKFGDMSYSIRHSISMYAMRNS,1.7
10,ISKKFGDMSYSIRHSISMKAMRNS,1.83
11,ISKKFGDMSYSIRHSISMDAMRNS,2.2
12,ISKKFGDMSYSIRHSISMVAMRNS,1.87
13,ISKKFGDMSYSIRHSISMQAMRNS,2.33
14,ISKKFGDMSYSIRHSISMLAMRNS,2.35
15,ISKKFGDMSYSIRHSISMGAMRNS,2.6
16,ISKKFGDMSYSIRHSISMAAMRNS,1.98
17,ISKKFGDMSYSIRHSISMWAMRNS,1.71
18,ISKKFGDMSYSIRHSISMFAMRNS,1.87
19,ISKKFGDMSYSIRHSISMMAMRNS,2.58
20,ISKKFGDMSYSIRHSISHPAMRNS,2.6
21,ISKKFGDMSYSIRHSISWPAMRNS,1.7
22,ISKKFGDMSYSIRHSISYPAMRNS,1.87
23,ISKKFGDMSYSIRHSISLPAMRNS,2.01
24,ISKKFGDMSYSIRHSISVPAMRNS,1.83

row,Variant,protein stability index
1,ISKKFGDMSYSIRHSISGPAMRNS,2.42
2,ISKKFGDMSYSIRHSISFPAMRNS,1.8
3,ISKKFGDMSYSIRHSISNPAMRNS,2.28
4,ISKKFGDMSYSIRHSISAPAMRNS,2.64
5,ISKKFGDMSYSIRHSISCPAMRNS,2.21
6,ISKKFGDMSYSIRHSISTPAMRNS,2.58
7,ISKKFGDMSYSIRHSISKPAMRNS,2.31
8,ISKKFGDMSYSIRHSISQPAMRNS,2.77
9,ISKKFGDMSYSIRHSISDPAMRNS,2.88
10,ISKKFGDMSYSIRHSISPPAMRNS,2.64
11,ISKKFGDMSYSIRHSISSPAMRNS,2.05
12,ISKKFGDMSYSIRHSISEPAMRNS,2.74
13,ISKKFGDMSYSIRHSISIPAMRNS,2.53
14,ISKKFGDMSYSIRHSISRPAMRNS,2.34
15,ISKKFGDMSYSYRHSISMPAMRNS,2.37
16,ISKKFGDMSYSVRHSISMPAMRNS,2.28
17,ISKKFGDMSYSSRHSISMPAMRNS,2.41
18,ISKKFGDMSYSLRHSISMPAMRNS,2.71
19,ISKKFGDMSYSQRHSISMPAMRNS,2.27
20,ISKKFGDMSYSHRHSISMPAMRNS,2.6
21,ISKKFGDMSYSWRHSISMPAMRNS,1.57
22,ISKKFGDMSYSNRHSISMPAMRNS,3.1
23,ISKKFGDMSYSMRHSISMPAMRNS,2.44
24,ISKKFGDMSYSKRHSISMPAMRNS,2.56

row,Variant,protein stability index
1,ISKKFGDMSYSTRHSISMPAMRNS,2.83
2,ISKKFGDMSYSPRHSISMPAMRNS,2.98
3,ISKKFGDMSYSRRHSISMPAMRNS,2.86
4,ISKKFGDMSYSIRNSISMPAMRNS,2.38
5,ISKKFGDMSYSIRMSISMPAMRNS,2.44
6,ISKKFGDMSYSIRFSISMPAMRNS,2.49
7,ISKKFGDMSYSIRDSISMPAMRNS,3.35
8,ISKKFGDMSYSIRSSISMPAMRNS,1.8
9,ISKKFGDMSYSIRASISMPAMRNS,2.15
10,ISKKFGDMSYSIRVSISMPAMRNS,4.3
11,ISKKFGDMSYSIRPSISMPAMRNS,2.56
12,ISKKFGDMSYSIRTSISMPAMRNS,1.9
13,ISKKFGDMSYSIRYSISMPAMRNS,1.7
14,ISKKFGDMSYSIRQSISMPAMRNS,2.28
15,ISKKFGDMSYSIRLSISMPAMRNS,3.05
16,ISKKFGDMSYSIRKSISMPAMRNS,2.69
17,ISKKFGDMSYSIRESISMPAMRNS,2.33
18,ISKKFGDMSYSIRGSISMPAMRNS,1.88
19,ISKKFGDMSYSIRCSISMPAMRNS,2.73
20,ISKKFGDMSYSIRISISMPAMRNS,2.73
21,ISKKFGDMSYSIRRSISMPAMRNS,3.72
22,ISKKFGDMSYSIRHSISMPALRNS,2.27
23,ISKKFGDMSYSIRHSISMPAERNS,3.36
24,ISKKFGDMSYSIRHSISMPANRNS,2.68

row,Variant,protein stability index
1,ISKKFGDMSYSIRHSISMPAFRNS,2.31
2,ISKKFGDMSYSIRHSISMPAIRNS,2.39
3,ISKKFGDMSYSIRHSISMPADRNS,2.75
4,ISKKFGDMSYSIRHSISMPAWRNS,2.79
5,ISKKFGDMSYSIRHSISMPAYRNS,2.46
6,ISKKFGDMSYSIRHSISMPACRNS,3.31
7,ISKKFGDMSYSIRHSISMPAARNS,2.82
8,ISKKFGDMSYSIRHSISMPATRNS,2.49
9,ISKKFGDMSYSIRHSISMPARRNS,2.57
10,ISKKFGDMSYSIRHSISMPAKRNS,3.21
11,ISKKFGDMSYSIRHSISMPAGRNS,2.4
12,ISKKFGDMSYSIRHSISMPASRNS,2.46
13,ISKKFGDMSYSIRHSISMPAVRNS,2.53
14,ISKKFGDMSYSIRHSISMPAHRNS,2.46
15,ISKKFGDMSYSIRHSISMPAPRNS,2.54
16,ISKKFGDMSYSIRHSISMPAQRNS,2.33
17,ISKKFGDMSYSIRHSISMPAMANS,2.23
18,ISKKFGDMSYSIRHSISMPAMENS,2.18
19,ISKKFGDMSYSIRHSISMPAMDNS,2.52
20,ISKKFGDMSYSIRHSISMPAMCNS,1.97
21,ISKKFGDMSYSIRHSISMPAMFNS,2.22
22,ISKKFGDMSYSIRHKISMPAMRNS,2.31
23,ISKKFGDMSYSIRHTISMPAMRNS,1.88
24,ISKKFGDMSYSIRHNISMPAMRNS,2.37

row,Variant,protein stability index
1,ISKKFGDMSYSIRHIISMPAMRNS,1.87
2,ISKKFGDMSYSIRHAISMPAMRNS,2.23
3,ISKKFGDMSYSIRHPISMPAMRNS,2.43
4,ISKKFGDMSYSIRHMISMPAMRNS,1.91
5,ISKKFGDMSYSIRHLISMPAMRNS,1.83
6,ISKKFGDMSYSIRHWISMPAMRNS,2.22
7,ISKKFGDMSYSIRHYISMPAMRNS,1.51
8,ISKKFGDMSYSIRHVISMPAMRNS,1.32
9,ISKKFGDMSYSIRHGISMPAMRNS,2.38
10,ISKKFGDMSYSIRHFISMPAMRNS,1.42
11,ISKKFGDMSYSIRHHISMPAMRNS,1.85
12,ISKKFGDMSYSIRHCISMPAMRNS,2.23
13,ISKKFGDMSYSIRHEISMPAMRNS,3.28
14,ISKKFGDMSYSIRHDISMPAMRNS,1.92
15,ISKKFGDMSYSIRHRISMPAMRNS,2.24
16,ISKKFGDMSYSIRHQISMPAMRNS,2.5
17,ISKKFGDMSYSIRHSISMPWMRNS,2.13
18,ISKKFGDMSYSIRHSISMPPMRNS,2.36
19,ISKKFGDMSYSIRHSISMPNMRNS,2.58
20,ISKKFGDMSYSIRHSISMPDMRNS,3.36
21,ISKKFGDMSYSIRHSISMPFMRNS,2.2
22,ISKKFGDMSYSIRHSISMPVMRNS,2.95
23,ISKKFGDMSYSIRHSISMPRMRNS,2.24
24,ISKKFGDMSYSIRHSISMPLMRNS,1.93

row,Variant,protein stability index
1,ISKKFGDMSYSIRHSISMPEMRNS,2.58
2,ISKKFGDMSYSIRHSISMPYMRNS,2.17
3,ISKKFGDMSYSIRHSISMPTMRNS,2.58
4,ISKKFGDMSYSIRHSISMPGMRNS,1.67
5,ISKKFGDMSYSIRHSISMPMMRNS,1.95
6,ISKKFGDMSYSIRHSISMPHMRNS,2.28
7,ISKKFGDMSYSIRHSISMPQMRNS,2.26
8,ISKKFGDMSYSIRHSISMPIMRNS,2.67
9,ISKKFGDMSYSIRHSISMPSMRNS,2.04
10,ISKKFGDMSYSIRHSISMPKMRNS,2.35
11,ISKKFGDMSYSIRHSISMPCMRNS,2.38
12,ISKKFGDMSYSIRHSIWMPAMRNS,1.27
13,ISKKFGDMSYSIRHSIRMPAMRNS,2.17
14,ISKKFGDMSYSIRHSIQMPAMRNS,2.48
15,ISKKFGDMSYSIRHSILMPAMRNS,1.8
16,ISKKFGDMSYSIRHSIFMPAMRNS,2.13
17,ISKKFGDMSYSIRHSITMPAMRNS,2.11
18,ISKKFGDMSYSIRHSIMMPAMRNS,2.17
19,ISKKFGDMSYSIRHSIVMPAMRNS,2.12
20,ISKKFGDMSYSIRHSIHMPAMRNS,2.15
21,ISKKFGDMSYSIRHSIDMPAMRNS,2.36
22,ISKKFGDMSYSIRHSIYMPAMRNS,1.98
23,ISKKFGDMSYSIRHSICMPAMRNS,1.92
24,ISKKFGDMSYSIRHSIGMPAMRNS,2.42

row,Variant,protein stability index
1,ISKKFGDMSYSIRHSIEMPAMRNS,2.1
2,ISKKFGDMSYSIRHSIIMPAMRNS,2.03
3,ISKKFGDMSYSIRHSINMPAMRNS,2.25
4,ISKKFGDMSYSIRHSIKMPAMRNS,2.13
5,ISKKFGDMSYSIRHSIPMPAMRNS,2.28
6,ISKKFGDMSYSIRHSIAMPAMRNS,2.01
7,ISKKFGDMSYSIDHSISMPAMRNS,2.49
8,ISKKFGDMSYSICHSISMPAMRNS,1.78
9,ISKKFGDMSYSIFHSISMPAMRNS,2.01
10,ISKKFGDMSYSIMHSISMPAMRNS,1.89
11,ISKKFGDMSYSIPHSISMPAMRNS,2.67
12,ISKKFGDMSYSIGHSISMPAMRNS,2.45
13,ISKKFGDMSYSIVHSISMPAMRNS,2.6
14,ISKKFGDMSYSIYHSISMPAMRNS,1.45
15,ISKKFGDMSYSIHHSISMPAMRNS,2.37
16,ISKKFGDMSYSIQHSISMPAMRNS,2.05
17,ISKKFGDMSYSISHSISMPAMRNS,2.02
18,ISKKFGDMSYSIEHSISMPAMRNS,2.48
19,ISKKFGDMSYSIIHSISMPAMRNS,1.64
20,ISKKFGDMSYSILHSISMPAMRNS,1.77
21,ISKKFGDMSYSINHSISMPAMRNS,2.1
22,ISKKFGDMSYSITHSISMPAMRNS,2.01
23,ISKKFGDMSYSIWHSISMPAMRNS,2.29
24,ISKKFGDMSYSIKHSISMPAMRNS,2.14

row,Variant,protein stability index
1,ISKKFGDMSYSIAHSISMPAMRNS,2.21
2,ISKKFGDMSYSIRHSPSMPAMRNS,2.99
3,ISKKFGDMSYSIRHSDSMPAMRNS,2.6
4,ISKKFGDMSYSIRHSKSMPAMRNS,2.98
5,ISKKFGDMSYSIRHSQSMPAMRNS,2.72
6,ISKKFGDMSYSIRHSRSMPAMRNS,2.81
7,ISKKFGDMSYSIRHSTSMPAMRNS,2.67
8,ISKKFGDMSYSIRHSNSMPAMRNS,2.61
9,ISKKFGDMSYSIRHSVSMPAMRNS,2.32
10,ISKKFGDMSYSIRHSSSMPAMRNS,2.77
11,ISKKFGDMSYSIRHSFSMPAMRNS,1.61
12,ISKKFGDMSYSIRHSCSMPAMRNS,2.02
13,ISKKFGDMSYSIRHSLSMPAMRNS,2.46
14,ISKKFGDMSYSIRHSYSMPAMRNS,2.12
15,ISKKFGDMSYSIRHSWSMPAMRNS,1.97
16,ISKKFGDMSYSIRHSMSMPAMRNS,2.9
17,ISKKFGDMSYSIRHSGSMPAMRNS,2.51
18,ISKKFGDMSYSIRHSESMPAMRNS,3.25
19,ISKKFGDMSYSIRHSHSMPAMRNS,2.36
20,ISKKFGDMSYSIRHSASMPAMRNS,2.76

# From the supplement of paper PMC10567573
